Experimental data published in the nanobody polyreactivity screen of Harvey et al. (2022).

assay: yeast display, Sf9 membrane polyspecificity reagent, FACS + sequencing; frameworks hold sequencing errors
Procedure, shortened: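 Galactose induction of a Saccharomyces cerevisiae BJ5465 synthetic nanobody display library ran 36–48 hours. The cells were then stained for 1 hour at 4 °C with 10% biotinylated, detergent-solubilized Sf9 membrane reagent, pulled down on streptavidin microbeads and FACS-sorted into low and high (top ~1%) gates on expression and reagent-binding fluorescence. Labels for polyreactivity follow the gate of origin.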

| Sequence | polyreactivity (PSR sort gate) |
| --- | --- |
| QVQLQESGGGLVQAGGSLRLSCAASGTIFRFRYMGWHRQAPGKERELVAGINGGTTTYYADSVIGRFTISRDNAKNTVYLHMNCLKPDDTAVYNCAAGASRLTYYDYWGQGTQVTVSS | low polyreactivity |
| QVQLQESGGGLVQAGGSLRLSCAASGTIFRFRYMGWHRQAPGTERELVAGINGGTTTYYADSVIGRFTISRDNAKNTVYLQMNSLKPDDTAVYNCAAGASRLTYYDYWGQGTQVTVSS | low polyreactivity |
| QVQLQESGGGLVQAGGSLRLSCAASGTIFTARFMGWYRQAPGKERELVATITDGGNTNHADSVKGRFTISRDNAKNTVYLQMNSLKPEDAAVYFCAAGEVDNDTLLYWGQGSQVTVSS | low polyreactivity |
| QVQLQESGGGLVQAGGSLRLSCAASGTIFWLWAMGWYCKAPGKERELVASISSGGTTYHADSVKGRFTISRDNAKNTVYLQMNSLKPEDTAVYYSAAFYVATAKLGYWGQGSQVTVSS | low polyreactivity |
| QVQLQESGGGLVQAGGSLRLSCAASGTIFWLWAMGWYCPAPGKERELVASISSGGTTYHADSVKGRFTISRDNAKNTVYLQMNSLKPEDTAVYYSAAFYVATAKLGYWGQGSQVTVSS | low polyreactivity |
| QVQLQESGGGLVQAGGSLRLSCAASGTISDRAGMGWYRQAPAKNAIVATIDRGTNTNYADSVKGRFTISRDNAKNPVYLKMNSLKPEDTAVYNWAADGRYYIYLDYWGQGTQVTVSS | low polyreactivity |
| QVQLQESGGGLVQAGGSLRLSCAASGTISDSGLKGWYRQAPGIERELVAGISSGGITNYADSVKGRFTISRDNAQNTVYLQMNSLKPVDTAVYWGQGTQLTVSS | low polyreactivity |
| QVQLQESGGGLVQAGGSLRLSCAASGTISLGDNMGWYRQAPGKEREFVATISVGGITYYVDSVKGRFTISRDIAKNTVYLQMNSLKPEDTAVYYCAALDIYYFRYYYWGQGTQVTVSS | low polyreactivity |
| QVQLQESGGGLVQAGGSLRLSCAASGTISPLPAMGWYRQAPGKEREFVAGIDTGAITNYADSVKGRFTISRDNAKNTVYLQMNSLIAEDTAVYYCAVFPAAYDYYERYYTYWGQGTQVTVSS | low polyreactivity |
| QVQLQESGGGLVQAGGSLRLSCAASGTISQEDRMGWYRQAPGKEREFVAAIGLGSNTNYADSLKGRFTISRDNAKNTVYLQMNSLKPEDTAVYYCAVSVWQYSDHVYRGQGTQVTVSS | low polyreactivity |
| QVQLQESGGGLVQAGGSLRLSCAASGTISQEDWMGWYRQAPGKEREFVAAIGLGSNTNYADSLKGRFTMSRDNAKNTVYLQMNSLKPEDTAVYYCAVSVWQYSDHVYRGQGTQVTVSS | low polyreactivity |
| QVQLQESGGGLVQAGGSLRLSCAASGTISTDSYMGWYRQAPGKERKFVATIGYGGITYYADSVKGRSTISRDSAKNTVYLQMNSLKPEDTAVYYCAVNSYYPDHYWYWGRGTQVTVSS | high polyreactivity |
| QVQLQESGGGLVQAGGSLRLSCAASGTISYAPHMGWYRHAPGKERELDAGITIGGTTYYADSVKGRFTISRDYAKNTVDLQMNRLSPGDTAVYYCAAHSEQYTPFYYWGQGTQVTVSS | low polyreactivity |
| QVQLQESGGGLVQAGGSLRLSCAASGTITVLYKMAWFRQEPGKEREFVASINYGTSTYYADSVKGRFTVSRDSAKNTVYLQMNSLKPEDTAVYYCAAAYRWQDVYRYWGQGTQVTVSS | low polyreactivity |
| QVQLQESGGGLVQAGGSLRLSCAASGYIILQYAMGWYRPAPGKERELVASIARGTSTYYADSVKGRFTISRDNAKNTVYLQMNSLKPEDTAVYYCAVIYSWGLWHDYWGQGTQVTVSS | high polyreactivity |
| QVQLQESGGGLVQAGGSLRLSCAASGYISAGRQMGWYRQAPGKEREFVATINGGATTNYADSVKGRFTISRDNAKNSVFLQMNSLKPEDTAVYYCAAVIWYVQDYSYWGQGAQVTVSS | high polyreactivity |
| QVQLQESGGGLVQAGGSLRLSCAASGYISHADEMGWYRQAPGKEHELVASISNGGSTNYADSVKARCTISRDNAKTTVYLQMNSLKSEATAVYFCAAWTGQVDIHYYWGQGTQVTVSS | low polyreactivity |
| QVQLQESGGGLVQAGGSLRLSCAASGYISHADEMGWYRQAPGKEHELVASISNGGSTNYADSVKGRFTISRDNAKNTVYLQMNSLKSELTAVYYCAAWTGQVDIHYYWGQGTQVTVSS | low polyreactivity |
| QVQLQESGGGLVQAGGSLRLSCAASGYISYFVGMGWYRQAPGKEREFVASIADGSNTYYADSVKGRFTISRDNAKNTVYLQRNSLKQEDTAVYYCAVEDSWTYRFDYWGQGTQVTVSS | high polyreactivity |
| QVQLQESGGGLVQAGGSLRLSCEASGSISHYIFMGWYRQAQGKEREFVAGIGYGGTTNYADSVKGRFTISRDNAKNTVYLQMNSLKPEDTAMYYCAAREATEFYLYYWGQGTQVTVSS | low polyreactivity |
| QVQLQESGGGLVQAGGSLRLSCEASGYISLAQTIGWYRQAPGKEREFVASIALGSSTYYTDSVKGSFTISRDKEKTTVYLQMNSLKPAETGVYYCAARVGASYAHDYWGQGTQVTVSS | low polyreactivity |

| Sequence | polyreactivity (PSR sort gate) |
| --- | --- |
| QVQLQESGGGLVQAGGSLRLSSAASGNFFDADIIGRYRQAPGKERELVASITDGGSTNYADSVKGRFTISRDDTRNTVHLQMNSLYPEDTAVYYCAAIAYPDIPTYFDYDSDYSYWGQGTQVTVSS | high polyreactivity |
| QVQLQESGGGLVQAGGSLRLSSAASGSIIQYGYMGWYRQAPGKEREFVAGIGGGTSNYADSVKGRFTMSRDNAKNTVYLQMNSLKPEDTAVYYCNTDAGDYYGENYWGQGTQVTVSS | low polyreactivity |
| QVQLQESGGGLVQAGGSLRLSSAASGTISPLPAMGWYRHAPGKEREFVAGIDTGAIHNYADSVKGRFTIRRDNAKNTVYLQMNSLKPEDTAVYYCAVFPAAYEYYERYYTYWGQGTQVTVSS | low polyreactivity |
| QVQLQESGGGLVQAGGSLRLTCAASGSISRLDYMGWYRQASGKERELVAAIDNGSTTYYADSVKGRLTISRDNAKYTVYLQMNSLKPEDTAVYFCAAVRGRGGTHAYWGQGTQVTVSG | low polyreactivity |
| QVQLQESGGGLVQAGGSLRLTCAASGTITVLYKRGWFRQAPGKEREFVASINYGTSTYYADSVKGRFTVSRDSAINTVYLQMTSLKPEDTAVDYCAAAYRWQDVYRYWGQGTQVTVSS | low polyreactivity |
| QVQLQESGGGLVQAGGSLRPSCEASGNISLNVYMCWYRQAPGKEREFVAGTADGATTNYADSVKGRFTISRDNAKNTVFLQMNSLKPEDTAVYDCIKDYGYVQLRFYGPGYYWGQGTQVTVSS | low polyreactivity |
| QVQLQESGGGLVQAGGSLRQSCAASGSISATDSVGWYRQAPGKEREFVATIDGGANTNYADSVKGRFTISRDNAKNTVYLQMNSLKPEDTAVYYCAKDSQTARDFDYWGQGTQVTVSS | low polyreactivity |
| QVQLQESGGGLVQAGGSLRQSYAASGYIFPSLAMGWYRQAPGKEREFVAAIGRGSTNNYADSVKGRFTISRDNAKNTAYQQMNSLKPEDTAVYYCAADASPLTRNLYWGQGTQVTVSS | low polyreactivity |
| QVQLQESGGGLVQAGGSLRVSCAASGYISSWYPRGWYRQAPGKEREFVATISPGATTYYADSVKGRFTISRDYAKNTVYLQMNSLKPEDTAVYYCSAGQENNDFYSYWGQGTQVTVSS | low polyreactivity |
| QVQLQESGGGLVQAGGSPRLSCAASDNIFPDSVMCWYRQAPGKERELVATIGFGATTNYADSVKGRFTISRDNAKNTVYLQMNSLKPEDTAVYYCAADPLNYEYFCYGGQGTQVTVSS | low polyreactivity |
| QVQLQESGGGLVQAGGTITLGYEMGWYRQAPGKEREFVAGIDTGAITYYADSVKGRFTNSRDNAKNTVYLQMNSLKPEDTAVYYCAAIQTHTYAHSYWGQGTQVTVSS | high polyreactivity |
| QVQLQESGGGLVQAGGTLRLSCAASGSFSADEDMGWYRQAQGKEREFVAGISVGGNTNYADSVKGPFTISRENAKNTVYLQINSLKPEDTAVYYCAVLQDVYDALDFWAQGTQVTVSS | high polyreactivity |
| QVQLQESGGGLVQAGGTLRLSCAASGSFSADEDMGWYRQAQGKEREFVAGISVGGNTNYADSVKGRFTISRENAKNTVYLELNSLKPEDTAVYYCAVLQDVYDALDYWAQGTQVTVSS | high polyreactivity |
| QVQLQESGGGLVQAGVSLRLSCAASGYISIEEDISWFCQAPGKERELVASITYGAITYYADSVKGRLTISSDNAKNTVYRQMNCLKPEDTAEYYCAVSYDYQQYYVSCGQGTQVTVSS | low polyreactivity |
| QVQLQESGGGLVQASGSLRLSCAASGNIFPDYVMGWYRLAPGKEREFVANITGGSTTNYADSVKGRFTISRDNAKNTVYLQMNSLNPEDTAVYYCAVNFGTVVLYLYWGQGTQVTVSS | high polyreactivity |
| QVQLQESGGGLVQASGSPRLSCAASGNIFDADIMGWYRQAPGKQCELVASITDGGSTNYADSEKGRFTISSDNAKNTVYLQMNSLKPEDTAVYYCAAIAYPDIPTYFDYDSDYFYWGQGTHVTVSS | high polyreactivity |
| QVQLQESGGGLVQAVCSRRLSCAASGSFSSRDAMGWYRQAPGTEREFVATIAVGGNTNYADSAKGRFTISRDNAKITVYLQMNSPKPEDTAVYYRAAVIDFDIFTYWGQGTQVTVRS | high polyreactivity |
| QVQLQESGGGLVQVGGSLRLSCAASGNIFIYGIMGWNRQAPGKERELVASINLGGITNYADSVKGRFTISRDNAKNTVYLQMISLKPEDTAVYYCAAYVVTGQNYGYWGQGTQVTVSS | low polyreactivity |
| QVQLQESGGGLVQVGGSLRLSCPSSGTIFIYGFLGWNRQAPGKERELVASINLGGITNYADSVKGRCTISRDNAKNTVNLQMISLKPEDTAVYYCATYVVTGQNYGYWGQGTQVTVSR | low polyreactivity |
| QVQLQESGGGLVQVGGSLRLTCAASGTIFIYGFLGWNRQAPGKERELVASINLGGITNYADSVKGRFTISRDNANNTVYLQMISLKPEDTAVYFCAAYFVTGQNYGSWGQGTQVTVSS | low polyreactivity |
